Primed or numbered codes have the meaning given here. Side chains are listed from the residue outwards. Ends that are not written are not given here. * marks the point of attachment. dT′ = N3-(decanoic acid)-2'-deoxythymidine (dT probe 19), Cc1cn([C@H]2C[C@H](O)[C@@H](CO)O2)c(=O)n(CCCCCCCCCC(=O)*)c1=O; coumarin = 7-methoxycoumarin-3-carboxylic acid, COc1ccc2cc(C(=O)*)c(=O)oc2c1; 25OHVD3 = 25-hydroxyvitamin D3, linked at its carbon 11; Dansyl = CN(C)c1cccc2c(S(=O)(=O)*)cccc12; 8C = 8-carbon spacer; Ahx = NCCCCCC(=O)O; VD3 = vitamin D3
T1: vitamin D binding protein
T1 sequence (P02774 17-474, species assumed, looked up): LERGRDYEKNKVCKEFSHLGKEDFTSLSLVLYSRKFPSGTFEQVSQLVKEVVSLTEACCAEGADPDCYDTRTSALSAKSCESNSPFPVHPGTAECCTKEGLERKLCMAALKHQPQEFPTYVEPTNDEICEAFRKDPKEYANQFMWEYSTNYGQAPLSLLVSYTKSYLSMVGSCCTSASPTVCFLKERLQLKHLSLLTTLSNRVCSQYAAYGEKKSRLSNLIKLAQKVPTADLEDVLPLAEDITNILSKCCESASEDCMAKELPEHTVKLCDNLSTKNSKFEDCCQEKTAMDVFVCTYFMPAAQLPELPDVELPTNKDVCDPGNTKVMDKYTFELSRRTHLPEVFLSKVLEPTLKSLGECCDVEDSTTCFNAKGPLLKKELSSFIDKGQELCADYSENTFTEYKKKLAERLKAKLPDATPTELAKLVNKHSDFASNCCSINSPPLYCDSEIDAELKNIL

B1: 4-C25L22-6C-25OHVD3 (dansyl) (designed binder)
chain: NAADLEARIRHLRERLAARGPK([Ahx-25OHVD3])DAK(Dansyl)QLAEQLARAFERFARAG
modifications: not fully specified (N-terminus, C-terminus)
B2: 3-C15L8-6C-25OHVD3 (dansyl) (designed binder)
chain: Ac-NAADLEAK([Ahx-25OHVD3])IRHLAEK(Dansyl)LAARGPVDAAQLAEQLARRFEAFARAG
B3: 4-C37L34-6C-25OHVD3 (dansyl) (designed binder)
chain: NAADLEARIRHLRERLAARGPRDAAQLAEQLARK([Ahx-25OHVD3])FEK(Dansyl)FARAG
modifications: not fully specified (N-terminus, C-terminus)
B4: 4-C15L8-6C-25OHVD3 (coumarin) (designed binder)
chain: Ac-NAADLEAK([Ahx-25OHVD3])IRHLREK(coumarin)LAARGPRDAAQLAEQLARRFERFARAG
B5: 3-C10L17-8C-25OHVD3 (dansyl) (designed binder)
chain: Ac-NAADLEARIK(Dansyl)HLAERLK([8C-25OHVD3])ARGPVDAAQLAEQLARAFEAFARAG
B6: 4-C15L8-8C-25OHVD3 (dansyl) (designed binder)
chain: Ac-NAADLEAK([8C-25OHVD3])IRHLREK(Dansyl)LAARGPRDAAQLAEQLARRFERFARAG
modifications: not fully specified (C-terminus)
B7: 4-C37L34-6C-VD3 (dansyl) (designed binder)
chain: NAADLEARIRHLRERLAARGPRDAAQLAEQLARK([Ahx-VD3])FEK(Dansyl)FARAG
modifications: not fully specified (N-terminus, C-terminus)
B8: 1-C15L8-8C-25OHVD3 (dansyl) (designed binder)
chain: Ac-NEADLEAK([8C-25OHVD3])IRHLAEK(Dansyl)LEARGPEDAEQLAEQLARAFEAFARAG
B9: 2-C15L8-8C-25OHVD3 (dansyl) (designed binder)
chain: Ac-NEADLEAK([8C-25OHVD3])IRHLAEK(Dansyl)LAARGPVDAAQLAEQLARAFEAFARAG
B10: 4-C25L22-6C-VD3 (dansyl) (designed binder)
chain: NAADLEARIRHLRERLAARGPK([Ahx-VD3])DAK(Dansyl)QLAEQLARAFERFARAG
modifications: not fully specified (N-terminus, C-terminus)
B11: 4-C10L17-6C-VD3 (dansyl) (designed binder)
chain: Ac-NAADLEARIK(Dansyl)HLRERLKARGPRDAAQLAEQLARAFERFARAG
modifications: not fully specified (residue 17)
B12: 3-C15L8-8C-25OHVD3 (dansyl) (designed binder)
chain: Ac-NAADLEAK([8C-25OHVD3])IRHLAEK(Dansyl)LAARGPVDAAQLAEQLARRFEAFARAG
B13: 4-C15L8-6C-VD3 (dansyl) (designed binder)
chain: Ac-NAADLEAKIRHLREK(Dansyl)LAARGPRDAAQLAEQLARRFERFARAG
modifications: not fully specified (residue 8)
B14: 3-C15L8-dT (designed binder)
chain: Ac-NAADLEAK(dT′)IRHLAEK(Dansyl)LAARGPVDAAQLAEQLARRFEAFARAG
B15: 2-C10L17-dT (designed binder)
chain: Ac-NAADLEAAIK(Dansyl)HLAEALK(dT′)ARGPVDAAQLAEQLARAFEAFARAG
B16: 3-C25L22-dT (designed binder)
chain: Ac-NAADLEAAIRHLAERLAARGPK(dT′)DAK(Dansyl)QLAEQLARAFEAFARAG
B17: 4-C10L17-dT (designed binder)
chain: Ac-NAADLEARIK(Dansyl)HLRERLK(dT′)ARGPRDAAQLAEQLARAFERFARAG

The binders below were run against T1, vitamin D binding protein (assay: SPR (Biacore 2000), DBP immobilized on CM5, 1:1 model).

Compared with B1, B2 is 1.7-fold higher in Kd: 750 nM for the first, 1300 nM for the second. The first binds more tightly here.

First: B3
Second: B4
The Kd of the first is 3.8-fold higher: 190 nM for the first, 50 nM for the second. The second binds more tightly here.

Compared with B5, B6 is 11-fold lower in Kd: 1200 nM for the first, 110 nM for the second.

Going from B7 to B8, the Kd falls from 900 nM to 290 nM (3.1-fold).

First: B9
Second: B10
The Kd of the first is 2.7-fold lower: 480 nM for the first, 1300 nM for the second.

B11 and B12 are within 1.5-fold of each other in Kd: 890 nM for the first, 1100 nM for the second.

With B13 the Kd was 1800 nM.

What follows are binders tested against thymidine kinase (assay: fluorescence screen, 2 µM binder, 2 and 4 µM TK; estimate for 'hits').

B14 and B15 cannot be ordered by Kd: < 20 nM for the first, < 20 nM for the second.

B16 and B17 cannot be ordered by Kd: < 20 nM for the first, < 20 nM for the second.

From US20130261013A1
